In patent publication US20210277061A1 (UNIVERSITY OF HONG KONG, published 2021):
Read-outs that look alike come from different tables or passages of the source. No end group written: not given here. *: point of attachment. Oxazole(5-CO) = O=C(c1cnco1)*; 2Furoyl = O=C(c1ccco1)*; Cbz = O=C(OCc1ccccc1)*

T1: AF9 YEATS domain, His-AF9 (1-138) (human, UniProt P42568 1-138)
T1 construct: Expressed in E. coli; not shown: His tag
T1 sequence (looked up): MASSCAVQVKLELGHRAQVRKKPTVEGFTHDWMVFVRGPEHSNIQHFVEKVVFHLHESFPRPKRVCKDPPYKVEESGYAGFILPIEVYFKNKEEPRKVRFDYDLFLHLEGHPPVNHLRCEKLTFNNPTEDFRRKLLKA


Assays:
[1] = target: T1, AF9 YEATS domain, His-AF9 (1-138); assay: photo-cross-linking competition vs photoaffinity probe, in-gel fluorescence
[2] = target: T1, AF9 YEATS domain, His-AF9 (1-138); assay: as above; remark: listed apart in the source
[3] = target: T1, AF9 YEATS domain, His-AF9 (1-138); assay: ITC
[4] = target: T1, AF9 YEATS domain, His-AF9 (1-138); assay: ITC; remark: listed apart in the source

Binder | IC50 [1] [µM] | further results
KQTARK(4‑oxazolecarbonyl)STGG-NH2 (also called 4.14) [compound 14 (XL-14)] | 3 | –
H-QTARK(2Furoyl)-NH2 (SMILES C[C@H](NC(=O)[C@@H](NC(=O)[C@@H](N)CCC(N)=O)[C@@H](C)O)C(=O)N[C@@H](CCCNC(=N)N)C(=O)N[C@@H](CCCCNC(=O)c1ccco1)C(N)=O, also called 4.7h) [compound 24 (XL-07h)] | 4.5 | –
Cbz-QTWRK(2Furoyl)-NH2 (SMILES C[C@@H](O)[C@H](NC(=O)[C@H](CCC(N)=O)NC(=O)OCc1ccccc1)C(=O)N[C@@H](Cc1c[nH]c2ccccc12)C(=O)N[C@@H](CCCNC(=N)N)C(=O)N[C@@H](CCCCNC(=O)c1ccco1)C(N)=O, Full structure only as drawing) [compound 49 (competitor A7-W)] | 0.32 | IC50 [2]: 315 nM
Cbz-QTLRK(2Furoyl)-NH2 (SMILES CC(C)C[C@H](NC(=O)[C@@H](NC(=O)[C@H](CCC(N)=O)NC(=O)OCc1ccccc1)[C@@H](C)O)C(=O)N[C@@H](CCCNC(=N)N)C(=O)N[C@@H](CCCCNC(=O)c1ccco1)C(N)=O, Full structure only as drawing) [compound 47 (competitor A7-L)] | 0.34 | IC50 [2]: 338 nM
Cbz-QSARK(2Furoyl)-NH2 (SMILES C[C@H](NC(=O)[C@H](CO)NC(=O)[C@H](CCC(N)=O)NC(=O)OCc1ccccc1)C(=O)N[C@@H](CCCNC(=N)N)C(=O)N[C@@H](CCCCNC(=O)c1ccco1)C(N)=O, Full structure only as drawing) [compound 55 (competitor T6-S)] | 0.78 | IC50 [2]: 778 nM
Cbz-QAARK(2Furoyl)-NH2 (SMILES C[C@H](NC(=O)[C@H](C)NC(=O)[C@H](CCC(N)=O)NC(=O)OCc1ccccc1)C(=O)N[C@@H](CCCNC(=N)N)C(=O)N[C@@H](CCCCNC(=O)c1ccco1)C(N)=O, Full structure only as drawing) [compound 53 (competitor T6-A)] | 0.72 | IC50 [2]: 715 nM
KQTARKSTGG-NH2 (not fully specified (residue 6); also: Lys6 acylated with group R, structure drawing only, also called 4.15) [compound 15 (XL-15)] | 24.5 | –
KQTARKSTGG-NH2 (not fully specified (residue 6); also: Lys6 acylated with group R, structure drawing only, also called 4.10) [compound 10 (XL-10)] | 10.6 | –
KQTARKSTGG-NH2 (not fully specified (residue 6); also: Lys6 acylated with group R, structure drawing only, also called 4.16) [compound 16 (XL-16)] | 12.6 | –
KQTARKSTGG-NH2 (not fully specified (residue 6); also: Lys6 acylated with group R, structure drawing only, also called 4.12) [compound 12 (XL-12)] | 10.4 | –
KQTARK(3‑furancarbonyl)STGG-NH2 (also called 4.8) [compound 8 (XL-08)] | 1.7 | –
Cbz-QTARK(2Furoyl)-NH2 (SMILES C[C@H](NC(=O)[C@@H](NC(=O)[C@H](CCC(N)=O)NC(=O)OCc1ccccc1)[C@@H](C)O)C(=O)N[C@@H](CCCNC(=N)N)C(=O)N[C@@H](CCCCNC(=O)c1ccco1)C(N)=O) [peptide control (competitor control)] | – | IC50 [2]: 189 nM
KQTARK(2Furoyl)STGG-NH2 (N-terminus assumed; SMILES C[C@H](NC(=O)[C@@H](NC(=O)[C@H](CCC(N)=O)NC(=O)[C@@H](N)CCCCN)[C@@H](C)O)C(=O)N[C@@H](CCCNC(=N)N)C(=O)N[C@@H](CCCCNC(=O)c1ccco1)C(=O)N[C@@H](CO)C(=O)N[C@H](C(=O)NCC(=O)NCC(N)=O)[C@@H](C)O, also called 4.7) [compound 7 (XL-07)] | 1.3 | fold binding enhancement over the native crotonyl group (H3K9cr) [3]: 4.5 fold; Kd [4]: 3300 nM; N (sites) [4]: 0.91 sites; ΔH [4]: -12200 cal/mol; ΔS [4]: -15.9 cal/mol/deg
KQTARKSTGG-NH2 (not fully specified (residue 6); also: Lys6 acylated with group R, structure drawing only, also called 4.11) [compound 11 (XL-11)] | 15.7 | –
KQTARK(2‑pyrimidinecarbonyl)STGG-NH2 (also called 4.6) [compound 6 (XL-06)] | 3.7 | –
KQTARK(Arg)STGG-NH2 (also: Lys6 acylated with group R, shown only as a drawing, also called 4.9) [compound 9 (XL-09)] | 6.5 | –
H-KQTARK(2Furoyl)-NH2 (SMILES C[C@H](NC(=O)[C@@H](NC(=O)[C@H](CCC(N)=O)NC(=O)[C@@H](N)CCCCN)[C@@H](C)O)C(=O)N[C@@H](CCCNC(=N)N)C(=O)N[C@@H](CCCCNC(=O)c1ccco1)C(N)=O, also called 4.7i) [compound 25 (XL-07i)] | 0.46 | –
QTARK(2Furoyl)-NH2 (not fully specified (N-terminus), Full structure only as drawing) [compound 74 (competitor Cbz-4)] | 0.23 | IC50 [2]: 226 nM
KQTARKSTGG-NH2 (not fully specified (residue 6); also: Lys6 acylated with group R, structure drawing only, also called 4.4) [compound 4 (XL-04)] | 22.2 | –
KQTARK(isonicotinoyl)STGG-NH2 (also called 4.5) [compound 5 (XL-05)] | 2.1 | –
KQTARKSTGG-NH2 (not fully specified (residue 6); also: Lys6 acylated with group R, structure drawing only, also called 4.2) [compound 2 (XL-02)] | 29.8 | –
KQTARK(Oxazole(5-CO))STGG-NH2 (N-terminus assumed; SMILES C[C@H](NC(=O)[C@@H](NC(=O)[C@H](CCC(N)=O)NC(=O)[C@@H](N)CCCCN)[C@@H](C)O)C(=O)N[C@@H](CCCNC(=N)N)C(=O)N[C@@H](CCCCNC(=O)c1cnco1)C(=O)N[C@@H](CO)C(=O)N[C@H](C(=O)NCC(=O)NCC(N)=O)[C@@H](C)O, also called 4.13) [compound 13 (XL-13)] | 0.74 | fold binding enhancement over the native crotonyl group (H3K9cr) [3]: 14.8 fold; Kd [4]: 1000 nM; N (sites) [4]: 1.04 sites; ΔH [4]: -12300 cal/mol; ΔS [4]: -13.8 cal/mol/deg
KQTARK(cyclopentanecarbonyl)STGG-NH2 (also called 4.17) [compound 86 (negative control), XL-17] | 34.5 | –
KQTARKSTGG-NH2 (not fully specified (residue 6); also: Lys6 acylated with group R, structure drawing only, also called 4.3) [compound 3 (XL-03)] | 22.1 | –
